Results as given in PMC5915351.

B1: BmbD (YcaO protein, thiazoline-forming), maltose-binding protein fusion (enzyme)
chain: MREATATECELREVVHRSYPSERTVTVRCTVRPAEGSAQADGYGTATTEAVARAKALSEAVERLVACTPFATVARPPTACADPGTGSGPVPPFPAAGVRTAPEGCAGRVYRPLTGGGPRRVPLYWSSPWTAGAELRAGTLTAAEARLSSTVGWAVAPTPEGALRGALLELTELIDYGVFLHRRLAGPARRPSAGDRTLVVPLGGIGRTPAVLAVAYGRGRLMPATGLGCGATRGEATDRALLELAQAETMWRSNPTAEPAERFFLRRFERWPLLARCATLDFDLPDPRDPPARSGPAGGPGPYDDGPCPASPLEELEAGGIRVWADSGAVDISGPDIPRTRLCFAHVVSDPQPLLGLVRAGIPVFDTGEVRRTLDPSRRPADRPADRGGHRDRSADRGPARRGHEGRRSA
B2: BmbE (YcaO protein, macrolactamidine-forming), maltose-binding protein fusion (enzyme)
chain: MTRPADPQTAPQTEAATETDPLTAVLLDGATKEDVPPERETDIRQALASVGDWLAAEGLTADIRKYGIESAPTYEVRLSEASGALCSRSSGKGLGHRSMASALFESAEHYHLDWRRDPRASEAEFRPGREIAEQATARRSALLGRLGQIMPDAPVLTRTYRPVEEALTGRAGDGEADGPHRHPVFLRDGGYRNWPHPDDDRSFQPLWHYTSSAGYAAGATRHEALVHAVNELIERDAWSYQLARSYFGLPGEGPELRVVEHGTLPAELRELTRTVEEVRGAPVLIVDITCDTGVPAYVVCDARSREDVRLIGSGASPVRTYAVQRALLEYLQVRTMFENGPVDADTEAGQIGTALARYPRHLAAARFDIHRLPHESTAFEADDGLPAATGPERLLRHLVDRLRESGVEAHHRVLTPPGPVTVVDVVAPGLEMFDKARAGYPVLPTGRLGERLRPRGDGGGARR

What follows are molecules tested against BmbC-C8S/S43C, fluorescein-labelled (bottromycin precursor peptide double variant) (Streptomyces bottropensis) (assay: fluorescence polarisation).

Molecule	Kd [nM]
RRE domain excised from BmbB (radical-SAM methyltransferase) (domain or fragment)	876
RRE domain excised from BmbF (radical-SAM methyltransferase) (domain or fragment)	597
B1	> 50000
B2	> 50000
